Reference: the supplement of paper PMC7125110
± gives the standard error. For part of these data: Variants at the floor of the assay were thinned out.

B1: glmS ribozyme (parent)
chain: AUAAAAGCGCCAGAACUACAGAAAUGUAGUUGACGAGGAGGAGGUUUAUCGAAUUUUCGGCGGAUGCCUCCAAA

Columns and labels:
Conditions in all cases: with glucosamine-6-phosphate
glucosamine-6-phosphate [1] = variants of: B1; assay: kcat; higher = faster cleavage; RNA array
Summary of the method: (§1)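 Glucosamine-6-phosphate (40 μM to 10 mM) in HEPES/KCl/Mg(OAc)2 buffer was flowed over sequenced MiSeq chips, and tiles were imaged over ~14 h. Barcoded ribozyme variants there had been transcribed in situ by E. coli RNA polymerase and were tracked through a hybridised Cy3 probe at 37 °C. One- or two-exponential decay fits to per-tile medians, normalised to baseline and to non-cleaving reference variants, gave kobs. kcat and KM came from weighted Michaelis–Menten fits across concentrations.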

glucosamine-6-phosphate [2] = variants of: B1; assay: KM; higher = weaker cofactor use; RNA array
Summary of the method: as §1

glucosamine-6-phosphate [3] = variants of: B1; assay: self-cleavage kobs at 160 uM GlcN6P; higher = faster cleavage; RNA array
Summary of the method: as §1

glucosamine-6-phosphate [4] = variants of: B1; assay: self-cleavage kobs at 640 uM GlcN6P; higher = faster cleavage; RNA array
Summary of the method: as §1

glucosamine-6-phosphate [5] = variants of: B1; assay: self-cleavage kobs at 2500 uM GlcN6P; higher = faster cleavage; RNA array
Summary of the method: as §1

glucosamine-6-phosphate [6] = variants of: B1; assay: self-cleavage kobs at 10000 uM GlcN6P; higher = faster cleavage; RNA array
Summary of the method: as §1

glucosamine-6-phosphate [7] = variants of: B1; assay: self-cleavage kobs at 40 uM GlcN6P; higher = faster cleavage; RNA array
Summary of the method: as §1

| Variant | kcat (glucosamine-6-phosphate [1]) | KM (glucosamine-6-phosphate [2]) | self-cleavage kobs at 160 uM GlcN6P (glucosamine-6-phosphate [3]) | self-cleavage kobs at 640 uM GlcN6P (glucosamine-6-phosphate [4]) | self-cleavage kobs at 2500 uM GlcN6P (glucosamine-6-phosphate [5]) | self-cleavage kobs at 10000 uM GlcN6P (glucosamine-6-phosphate [6]) | self-cleavage kobs at 40 uM GlcN6P (glucosamine-6-phosphate [7]) |
| --- | --- | --- | --- | --- | --- | --- | --- |
| AUAAAAGCGCCAGAACUACAGAAAUGUAGUUGACGAGGAGGAGGUUUAUCGAAUUUACGGCGGAUGCCUCCAAA [U57A] | 0.000404 ± 1.3e-05 s⁻¹ | 3120 ± 170 µM | 2.27e-05 ± 2.2e-06 s⁻¹ | 6.91e-05 ± 1.6e-06 s⁻¹ | 0.000175 ± 4e-06 s⁻¹ | 0.000311 ± 6.3e-06 s⁻¹ | – |
| AUAAAAGCGCCAGGACUACAGAAAUGUAGUUGACGAGGAGGAGGUUUAUCGAAUUUUCGACGGAUGCCUGCAAA [A14G G60A C70G] | 1.55e-05 ± 4e-06 s⁻¹ | – | – | – | – | – | < 1e-05 s⁻¹ |
| AUAAAAGCGCCAGAACUACAGAAAUGUAGUUGACGAGGAGGAGGUAUAUCGAAUUUUAGGCGGAUGCCUCCAAA [U46A C58A] | 2.63e-05 ± 4.4e-06 s⁻¹ | – | – | – | – | – | – |
| AUAAAAGCGCCAGAACUACAGAAAUGUAGUUGACGAGGAGGAGGUUUAUCGAAUUUUGGGCGGAUGCCGCCAAA [C58G U69G] | 4.22e-05 ± 1.4e-05 s⁻¹ | – | 6.03e-05 ± 1.5e-05 s⁻¹ | 5.7e-05 ± 1.7e-05 s⁻¹ | 5.1e-05 ± 1.6e-05 s⁻¹ | – | – |
| AUAAAAGCGCCAGAACUACAGAAAUGUAGUGGACGAGGAUGAGGUUUAUCGAAUUUUCGGCGGAUGCCUCCAAA [U31G G40U] | 0.00241 ± 0.0003 s⁻¹ | 2730 ± 500 µM | 0.000115 ± 1.6e-05 s⁻¹ | 0.000515 ± 5.8e-05 s⁻¹ | 0.00119 ± 0.00013 s⁻¹ | 0.00183 ± 0.0002 s⁻¹ | 3.85e-05 ± 7.6e-06 s⁻¹ |
| AUAAAAGCGCCAGAACUACAGAAAUGUAGUUGACGAGGAGGAGGUUCAUCGAAGUUUCGGCGGAUGCCUCCAAA [U47C U54G] | 0.00375 ± 0.00045 s⁻¹ | 1210 ± 200 µM | – | 0.0013 ± 0.00028 s⁻¹ | 0.00193 ± 0.00076 s⁻¹ | 0.00359 ± 0.00065 s⁻¹ | 0.000121 ± 1.7e-05 s⁻¹ |
| AUAAAAGCGCCAGAACUACAGAAAUGUAGUUGACGAAGAGGAGGUUUAUCGAAUUUUCGGCGGAUCCCUCCAAA [G37A G66C] | 0.000578 ± 0.0001 s⁻¹ | 2250 ± 630 µM | 4.54e-05 ± 1.4e-05 s⁻¹ | 0.000117 ± 1.8e-05 s⁻¹ | 0.000357 ± 5.8e-05 s⁻¹ | 0.000439 ± 8.7e-05 s⁻¹ | – |
| AUAAAAGCGCCAGAACUACAGAAAUGUAGUUGACGAGGAGAAGGUUUAUCGAAUUUUCGGCGGAUUCCUACAAA [G41A G66U C70A] | 0.000127 ± 3e-05 s⁻¹ | – | – | 9.26e-05 ± 3.3e-05 s⁻¹ | 6.32e-05 ± 2.8e-05 s⁻¹ | 0.000131 ± 2e-05 s⁻¹ | – |
| AUAAAAGCGCCAGAAUUACAGAAAUGUAGUUGACGAGGAGGAGGUUUUUCGAAUUUUGGGCGGAUGCCUGCAAA [C16U A48U C58G C70G] | 4.36e-05 ± 1.5e-05 s⁻¹ | – | 4e-05 ± 1.8e-05 s⁻¹ | 7.73e-05 ± 3e-05 s⁻¹ | – | – | – |
